From IntAct's records for PubMed 19424970

B1: UL16-binding protein 2 (Homo sapiens), Q9BZM5 (parent)
chain: MAAAAATKILLCLPLLLLLSGWSRAGRADPHSLCYDITVIPKFRPGPRWCAVQGQVDEKTFLHYDCGNKTVTPVSPLGKKLNVTTAWKAQNPVLREVVDILTEQLRDIQLENYTPKEPLTLQARMSCEQKAEGHSSGSWQFSFDGQIFLLFDSEKRMWTTVHPGARKMKEKWENDKVVAMSFHYFSMGDCIGWLEDFLMGMDSTLEPSAGAPLAMSSGTTQLRATATTLILCCLLIILPCFILPGI

Variants of: B1
Settings: with nkg2d_human KLRK1, P26718
Chain of nkg2d_human KLRK1, P26718 (P26718 whole entry): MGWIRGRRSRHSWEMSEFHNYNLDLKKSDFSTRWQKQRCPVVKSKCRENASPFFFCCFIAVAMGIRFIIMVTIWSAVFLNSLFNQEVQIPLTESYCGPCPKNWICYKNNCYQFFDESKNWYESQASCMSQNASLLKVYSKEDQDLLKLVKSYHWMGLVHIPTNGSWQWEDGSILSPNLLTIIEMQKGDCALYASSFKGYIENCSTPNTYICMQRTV

Variant	effect of a mutation on the interaction
MAAAAATKILLCLPLLLLLSGWSRAGRADPHSLCYDITVIPKFRPGPRWCAVQGQVDEKTFLHYDCGNKTVTPVSPLGKKLNVTTAWKAQNPVLREVVDILTEQLRDIQLENYTPKEPLTLQARMSCEQKAEGHSSGSWQLSFDGQIFLLFDSEKRMWTTVHPGARKMKEKWENDKVVAMSFHYFSMGDCIGWLEDFLMGMDSTLEPSAGAPLAMSSGTTQLRATATTLILCCLLIILPCFILPGI [F141L]	decreasing interaction strength
